Experimental findings from publication PMC8509923 are described below.

The target of this series is T1, Upc2A DNA-binding domain (Candida glabrata) (UniProt Q6FX18).
T1 sequence: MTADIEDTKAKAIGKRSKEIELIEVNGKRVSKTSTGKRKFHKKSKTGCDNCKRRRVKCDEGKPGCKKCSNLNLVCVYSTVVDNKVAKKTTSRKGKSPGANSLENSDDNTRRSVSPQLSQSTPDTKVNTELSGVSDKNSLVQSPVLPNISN
Put plainly: DNase I footprinting. The following applies: 5' amino-MC6 on reverse strand.

“ACTGCCACACAGAAGAGCAGCGGGACTACCGGAACACGATTAGCCTTCGTTTACATGTTGGCAAACCCAGGACATAGATCAGAGTGTATTACATTAGCACAGACCGGCCGTGGGTAAGTTTTTCCTGACTAAAATGGCCGCAGCTGCAAGTCCACGGAATATTTCCCTTTTTTGCTCGATAAGTTGTAC (double strand) [CDR1 promoter DNase I probe]”: the binding result is on record as “binds”.
